This series deals with MBP-p33C (C-terminal soluble portion of p33 replication protein) (Tomato bushy stunt virus). In words: biotin-RNA pull-down, anti-p33 immunoblot. The settings on record: EMSA: 10 mM HEPES pH 7.4, 50 mM NaCl, 1 mM DTT, 1 mM EDTA, 5% glycerol, 2.5 mM MgCl2, 0.1 ug tRNA, 2 U RNase inhibitor, 10 ul, 0.1 pmol RNA (EMSA temperature …).

RII(+) registered a binding signal (% of MBP control) of 50.

Values taken from paper PMC6555533.
